The results in this text go back to patent US20120003180A1.

The target in assay [1] is α5β1 integrin protein, covalently immobilised on the optical biosensor cuvette. The assay can be described thus: optical biosensor (IAsys), α5β1 immobilised, D3904A DV free in solution; Kd from Koff/Kon.
Assay [2] has the same target. Nature of the assay: optical biosensor (IAsys), α5β1 immobilised.
Assay [3] shares this target. The assay can be described thus: optical biosensor (IAsys), α5β1 immobilised, D3904A DV free in solution.
Assay [4] shares this target. The assay can be described thus: optical biosensor (IAsys), α5β1 immobilised, LG3 free in solution.
Assay [5] has the same target. The assay can be described thus: optical biosensor (IAsys), α5β1 immobilised, LG3 free in solution; Kd from Koff/Kon.

For “D3904A DV (perlecan Domain V with DGR mutated to AGR), C-terminal 6×His tag (from UniProt P98160 3687-4391) (ligand)”, the Kd (in general, a measure of binding affinity in units of concentration) in assay [1] stood at 0.37 µM. For the same substance, the affinity relative to non-mutated DV (fold of the affinity of non-mutated DV) in assay [2] is under 0.5. Moreover, the koff (commonly the first-order rate constant of dissociation) in assay [3] was 0.22 s⁻¹.

“LG3, the C-terminal fragment of perlecan Domain V, with C-terminal 6×His tag (from UniProt P98160 4197-4391) (ligand)” had a koff in assay [4] of 1.7 s⁻¹. Moreover, the Kd in assay [5] worked out at 1000 µM.
